Reference: patent publication US6762284 (ONYX PHARMACEUTICALS, dated 2004)
Like-named read-outs stand apart in the source and are kept apart here.

How the values were obtained:
Assay in all cases: yeast two-hybrid
[1] = molecular target: T1, p85 C-terminal SH2 domain (AA 620-727) (human, UniProt P04386 1-147; P27986 620-724)
[2] = molecular target: T2, p85 SH3 domain (AA 6-117) (human, UniProt P04386 1-147; P27986 6-117)
[3] = molecular target: T3, p85 Bcr homology domain (AA 118-340) (human, UniProt P04386 1-147; P27986 118-340)
[4] = molecular target: T4, p85 full length (AA 6-727) (human, UniProt P04386 1-147; P27986 6-724)
T4 construct: also called GAL4-p85

[5] = molecular target: p85 SH2 domains and inter SH2 domain (AA 263-727) (human, UniProt P04386 1-147; P27986 263-724)
[6] = molecular target: T5, p85 N-terminal SH2 and inter SH2 domain (AA 263-620) (human, UniProt P04386 1-147; P27986 263-620)
T5 construct: Two-hybrid bait fusion

[7] = molecular target: T1, p85 C-terminal SH2 domain (AA 620-727); remark: listed apart in the source
[8] = molecular target: T2, p85 SH3 domain (AA 6-117); remark: listed apart in the source
[9] = molecular target: T3, p85 Bcr homology domain (AA 118-340); remark: listed apart in the source

Measured: binding result

B1: PIKAP AA 277-360 (other, not shown: large carriers)
chain: EDSGDAEAHAFKSPSKENKKKDKDMLEDKFKSNNLEREQEQLDRIVKESGGKLTRRLVNSQCEFERRKPDGTTTLGLLHPVDPI
not listed: [7] | [8] | [9]
no binding: all other assays above

B2: PIKAP AA 361-516 (other, not shown: large carriers)
chain: VGEPGYCLVRLGMTTGRLQSGVNTLQGFKEDKRNKVTPVLYLNYGPYSSYAPHYDSTFANISKDDSDLIYSTYGEDSDLPSDFSIHEFLATCQDYPYVMADSLLDVLTKGGHSRTLQEMEMSLPEDEGHTRTLDTGKEMEQITEVEPPGRLDSSTQ
not listed: [7] | [8] | [9]
no binding: all other assays above

B3: PIKAP AA 517-589 (other, not shown: large carriers)
chain: DRLIALKAVTNFGVPVEVFDSEEAEIFQKKLDETTRLLRELQEAQNERLSTRPPGNMICLLGPSSEKCILLNK
notes: The text speaks of the last 74 amino acids, while 517-589 counts 73 residues; also called last 74 amino acids of the c-terminal end of PIKAP
no binding: [1] | [2] | [3]

B4: PIKAP AA 277-589 (other, not shown: large carriers)
chain: EDSGDAEAHAFKSPSKENKKKDKDMLEDKFKSNNLEREQEQLDRIVKESGGKLTRRLVNSQCEFERRKPDGTTTLGLLHPVDPIVGEPGYCLVRLGMTTGRLQSGVNTLQGFKEDKRNKVTPVLYLNYGPYSSYAPHYDSTFANISKDDSDLIYSTYGEDSDLPSDFSIHEFLATCQDYPYVMADSLLDVLTKGGHSRTLQEMEMSLPEDEGHTRTLDTGKEMEQITEVEPPGRLDSSTQDRLIALKAVTNFGVPVEVFDSEEAEIFQKKLDETTRLLRELQEAQNERLSTRPPGNMICLLGPSSEKCILLNK
notes: Two-hybrid prey fusion expressed in yeast YGH1; also called original isolate from two hybrid screening; PI3K Associated Protein AA 277-589
no binding: [7] | [8] | [9]
